Data reported in article PMC8615271.

Molecular target: PDI and ERp72 (human)
Assay: ITC; 280 µM P5 Cys55/58/190/193Ala mutant in the syringe (50 mM HEPES pH 7.2, 150 mM NaCl) titrated into 40 µM PDI or ERp72 in the cell (50 mM HEPES pH 7.2); 30 °C; one set of sites model

B1: Catalytically-inactive P5 (Cys55/58/190/193Ala) mutant (enzyme)
chain: LYSSSDDVIELTPSNFNREVIQSDSLWLVEFYAPWAGHAQRLTPEWKKAATALKDVVKVGAVDADKHHSLGGQYGVQGFPTIKIFGSNKNRPEDYQGGRTGEAIVDAALSALRQLVKDRLGGRSGGYSSGKQGRSDSSSKKDVIELTDDSFDKNVLDSEDVWMVEFYAPWAGHAKNLEPEWAAAASEVKEQTKGKVKLAAVDATVNQVLASRYGIRGFPTIKIFQKGESPVDYDGGRTRSDIVSRALDLFSDNAPPPELLEIINEDIAKRTCEEHQLCVVAVLPHILDTGAAGRNSYLEVLLKLADKYKKKMWGWLWTEAGAQSELETALGIGGFGYPAMAAINARKMKFALLKGSFSEQGINEFLRELSFGRGSTAPVGGGAFPTIVEREPWDGRDGELPVEDDIDLSDVELDDLGKDEL
A Kd of 2.4 to 4.1 µM was found for B1 in this work.
